The experiment has as its target T1, soluble human CD3 epsilon chain (human, UniProt P07766 23-126).
T1 construct: also called CD3ε
As to the kind of experiment: SPR. (Surface plasmon resonance follows binding to a sensor surface in real time, without labels.)

Where a chain is given by its changes, count along the chain named.

T1 sequence (P07766 23-126 limits assumed): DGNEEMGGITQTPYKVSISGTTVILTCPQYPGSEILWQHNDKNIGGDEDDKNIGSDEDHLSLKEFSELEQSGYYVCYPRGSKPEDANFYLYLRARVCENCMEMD

B1: TR01H040-E22Hh/none-Hi-Kn010G3/L0200-k0 (antibody, V domains shown)
VH: QVQLVESGGGLVQPGRSLRLSCAASGFTFSNAWMHWVRQAPGKGLEWVAQIKDKSQNYATYYAESVKGRFTISRADSKNSIYLQMNSLKTEDTAVYYCRYVHYSASYGVDAWGQGTTVTVSS
VL: DIVMTQSPLSLPVTPGEPASISCRPSQSPVHSNRNTYLHWYQQKPGQAPRLLIYKVSNRFSGVPDRFSGSGSGTDFTLKISRVEAEDVGVYYCGQGTQVPYTFGQGTKLEIK
notes: one-arm
B1 gave a Kd of 28.7 nM.

B2: TR01H040-E22Hh/none-Hi-Kn010G3/L0240-k0 (antibody, V domains shown)
VH: B1 VH
VL: B1 VL with P25S, Q27E, G94Y
notes: one-arm
Turning to B2, the dissociation constant Kd was 2.17 nM.

B3: TR01H040-E22Hh/none-Hi-Kn010G3/L0213-k0 (antibody, V domains shown)
VH: B1 VH
VL: B1 VL with P25S, L38I, S61R
notes: one-arm
B3: the Kd came to 20.1 nM.

B4: TR01H040-E22Hh/none-Hi-Kn010G3/L0220-k0 (antibody, V domains shown)
VH: B1 VH
VL: B1 VL with P25S, S28P, P29L, S61R, G94Y
notes: one-arm
B4 yielded a Kd of 9.15 nM.

B5: TR01H040-E22Hh/none-Hi-Kn010G3/L0234-k0 (antibody, V domains shown)
VH: B1 VH
VL: B1 VL with P25S, S28E, S61R
notes: one-arm
The molecule B5 came in with a Kd of 24 nM.

B6: TR01H040-E22Hh/none-Hi-Kn010G3/L0242-k0 (antibody, V domains shown)
VH: B1 VH
VL: B1 VL with P25S, Q27E, L38I, G94Y
notes: one-arm
B6: binding was characterised by a dissociation constant (Kd) of 3.58 nM.

B7: TR01H040-E22Hh/none-Hi-Kn010G3/L0239-k0 (antibody, V domains shown)
VH: B1 VH
VL: B1 VL with P25S, Q27E, S61R
notes: one-arm
B7: the Kd is 23.1 nM.

B8: TR01H040-E22Hh/none-Hi-Kn010G3/L0241-k0 (antibody, V domains shown)
VH: B1 VH
VL: B1 VL with P25S, Q27E, S61W, G94Y
notes: one-arm
In turn, B8 showed a Kd of 3.48 nM.

B9: TR01H040-E22Hh/none-Hi-Kn010G3/L0215-k0 (antibody, V domains shown)
VH: B1 VH
VL: B1 VL with P25S, S28P, L38I
notes: one-arm
B9 yielded a Kd of 33.7 nM.

B10: TR01H040-E22Hh/none-Hi-Kn010G3/L0235-k0 (antibody, V domains shown)
VH: B1 VH
VL: B1 VL with P25S, S28E, G94Y
notes: one-arm
In the case of B10, binding was characterised by a dissociation constant (Kd) of 2.81 nM.

B11: TR01H040-E22Hh/none-Hi-Kn010G3/L0231-k0 (antibody, V domains shown)
VH: B1 VH
VL: B1 VL with P25S, L38I, G94Y, V99W
notes: one-arm
The molecule B11 displayed a Kd of 7.75 nM.

B12: TR01H040-E22Hh/none-Hi-Kn010G3/L0238-k0 (antibody, V domains shown)
VH: B1 VH
VL: B1 VL with P25S, Q27E, S28P, G94Y
notes: one-arm
B12 had a Kd of 2.91 nM.

B13: TR01H040-E22Hh/none-Hi-Kn010G3/L0210-k0 (antibody, V domains shown)
VH: B1 VH
VL: B1 VL with P25S, N35W, G94Y
notes: one-arm
B13 showed a dissociation constant Kd of 5.06 nM.

B14: TR01H040-E22Hh/none-Hi-Kn010G3/L0237-k0 (antibody, V domains shown)
VH: B1 VH
VL: B1 VL with P25S, S28E, L38I, G94Y
notes: one-arm
B14 registered a Kd of 10.2 nM.

B15: TR01H040-E22Hh/none-Hi-Kn010G3/L0228-k0 (antibody, V domains shown)
VH: B1 VH
VL: B1 VL with P25S, L38I, G94V
notes: one-arm
Turning to B15, the Kd was 16 nM.

B16: TR01H040-E22Hh/none-Hi-Kn010G3/L0217-k0 (antibody, V domains shown)
VH: B1 VH
VL: B1 VL with P29L, S61R
notes: one-arm
Consider B16, for which the Kd is 20.7 nM.

B17: TR01H040-E22Hh/none-Hi-Kn010G3/L0224-k0 (antibody, V domains shown)
VH: B1 VH
VL: B1 VL with P25S, L38I, S61P, G94Y
notes: one-arm
Regarding B17, the dissociation constant (Kd) worked out at 5.06 nM.

B18: TR01H040-E22Hh/none-Hi-Kn010G3/L0207-k0 (antibody, V domains shown)
VH: B1 VH
VL: B1 VL with P25S, S61R, G94Y
notes: one-arm
For B18, the Kd came to 2.6 nM.

B19: TR01H040-E22Hh/none-Hi-Kn010G3/L0214-k0 (antibody, V domains shown)
VH: B1 VH
VL: B1 VL with P25S, S28P, S61R
notes: one-arm
In turn, B19 registered a Kd of 20.2 nM.

B20: TR01H040-E22Hh/none-Hi-Kn010G3/L0243-k0 (antibody, V domains shown)
VH: B1 VH
VL: B1 VL with P25S, Q27E, S28P, S61R
notes: one-arm
B20 gave a dissociation constant Kd of 24.6 nM.

B21: TR01H040-E22Hh/none-Hi-Kn010G3/L0216-k0 (antibody, V domains shown)
VH: B1 VH
VL: B1 VL with P25S, S28P, P29L, S61R
notes: one-arm
Molecule B21 returned a dissociation constant (Kd) of 25.3 nM.

B22: TR01H040-E22Hh/none-Hi-Kn010G3/L0233-k0 (antibody, V domains shown)
VH: B1 VH
VL: B1 VL with P25S, S28E, P29L
notes: one-arm
B22 gave a Kd of 40.1 nM.

B23: TR01H040-E22Hh/none-Hi-Kn010G3/L0227-k0 (antibody, V domains shown)
VH: B1 VH
VL: B1 VL with P25S, L38I, G94L
notes: one-arm
With B23, the Kd came out at 101 nM.

B24: TR01H040-E22Hh/none-Hi-Kn010G3/L0246-k0 (antibody, V domains shown)
VH: B1 VH
VL: B1 VL with P25S, L38I, H39Q, G94S
notes: one-arm
The molecule B24 came in with a Kd of 92.8 nM.

B25: TR01H040-E22Hh/none-Hi-Kn010G3/L0202-k0 (antibody, V domains shown)
VH: B1 VH
VL: B1 VL with P25S, N35W
notes: one-arm
For the molecule B25, binding was characterised by a dissociation constant (Kd) of 61.9 nM.

B26: TR01H040-E22Hh/none-Hi-Kn010G3/L0218-k0 (antibody, V domains shown)
VH: B1 VH
VL: B1 VL with P25S, P29L, S61R, G94Y
notes: one-arm
The molecule B26 returned a Kd of 8.2 nM.

B27: TR01H040-E22Hh/none-Hi-Kn010G3/L0205-k0 (antibody, V domains shown)
VH: B1 VH
VL: B1 VL with P25S, S61W
notes: one-arm
B27 registered a Kd of 34.2 nM.

B28: TR01H040-E22Hh/none-Hi-Kn010G3/L0236-k0 (antibody, V domains shown)
VH: B1 VH
VL: B1 VL with P25S, S28E, S61W, G94Y
notes: one-arm
The molecule B28 showed a dissociation constant (Kd) of 5.64 nM.

B29: TR01H040-E22Hh/none-Hi-Kn010G3/L0232-k0 (antibody, V domains shown)
VH: B1 VH
VL: B1 VL with P25S, Q27E, P29L
notes: one-arm
As for B29, binding was characterised by a dissociation constant (Kd) of 38.6 nM.

B30: TR01H040-E22Hh/none-Hi-Kn010G3/L0223-k0 (antibody, V domains shown)
VH: B1 VH
VL: B1 VL with P25S, L38I, F60L, G94Y
notes: one-arm
Molecule B30 yielded a Kd of 8.15 nM.

B31: TR01H040-E22Hh/none-Hi-Kn010G3/L0226-k0 (antibody, V domains shown)
VH: B1 VH
VL: B1 VL with P25S, L38I, G94I
notes: one-arm
For B31, the Kd worked out at 80.1 nM.

B32: TR01H040-E22Hh/none-Hi-Kn010G3/L0219-k0 (antibody, V domains shown)
VH: B1 VH
VL: B1 VL with P25S, P29L, L38I, S61R
notes: one-arm
For B32, the Kd came to 39.4 nM.

Usually Kd stands for a measure of binding affinity in units of concentration. Low readings indicate higher affinity, high ones lower affinity.

(Values after US20250066503A1, “CELL INJURY INDUCING THERAPEUTIC DRUG FOR USE IN CANCER THERAPY” (CHUGAI SEIYAKU KABUSHIKI KAISHA, priority 2016, published 2025).)
